Consider three molecules from patent publication US20220153832A1 (PIONYR IMMUNOTHERAPEUTICS, published 2022).

For experiment [1], the target named is T1, Human Macrophage Receptor with Collagenous Structure (MARCO), full length, on cells (human, UniProt Q9UEW3 1-520).
T1 construct: the cell type is named under assay; also called huMARCO; HuMARCO
T1 sequence: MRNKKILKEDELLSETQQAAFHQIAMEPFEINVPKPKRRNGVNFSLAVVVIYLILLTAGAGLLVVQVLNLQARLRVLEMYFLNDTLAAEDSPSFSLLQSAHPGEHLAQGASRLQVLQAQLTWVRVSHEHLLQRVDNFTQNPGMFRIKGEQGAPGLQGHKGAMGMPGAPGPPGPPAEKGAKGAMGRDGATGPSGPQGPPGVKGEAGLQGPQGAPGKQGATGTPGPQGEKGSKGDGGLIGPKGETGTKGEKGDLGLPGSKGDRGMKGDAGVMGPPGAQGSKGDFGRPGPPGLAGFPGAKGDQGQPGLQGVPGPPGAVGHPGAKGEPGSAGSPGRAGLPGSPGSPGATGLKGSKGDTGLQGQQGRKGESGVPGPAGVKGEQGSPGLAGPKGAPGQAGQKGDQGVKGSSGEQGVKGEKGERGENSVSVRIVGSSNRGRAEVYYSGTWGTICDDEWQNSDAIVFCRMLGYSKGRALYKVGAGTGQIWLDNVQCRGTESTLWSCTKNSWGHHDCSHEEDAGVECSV
The experiment is described as follows: flow cytometry, cells overexpressing human MARCO. How it is done: Supernatants were removed and cell pellets were resuspended in Ca²⁺+ and Mg²⁺+ Dulbecco's phosphate-buffered saline (D-PBS) at 1×10⁶ cells/ml. 100,000 cells/well were plated onto U-bottom 96-well plates for staining and all centrifugation steps were performed at 1500 rpm at 4° C. for 5 min and samples were kept protected from light throughout the protocol. Cells were pelleted and resuspended in 100 μl of Zombie NIR viability dye (BioLegend) prepared by diluting Zombie NIR dimethyl sulfoxide (DMSO) stock 1000-fold in D-PBS. Cells were stained by incubation for 10 min at room temperature (RT) in the dark, followed by quenching the staining reaction with the addition of 100 μl of Staining Medium (D-PBS containing 2% FBS and 2 mM ethylenediaminetetraacetic acid (EDTA). Cells were pelleted and resuspended in 100 μl of the different antibodies and hybridomas supernatants needed for screening and corresponding isotype controls in freshly prepared staining medium, such as PI-M014 and mIgG2b isotype. All mAbs were tested at the final top concentration of 100 nM (15 μg/ml) followed by an 8-point three-fold serial dilution, including 0 mg/ml control. Staining was carried out for 1 hour (hr) on ice, followed by 2 washes in Staining Medium. Cells were then pelleted and resuspended in 100 μl of allophycocyanin (APC)-conjugated goat anti-mouse IgG (Fc-specific) secondary antibody, prepared by 500-fold dilution of the antibody stocks in Staining Medium, and incubated for 30 min on ice. […] Flow cytometry data were analyzed using FlowJo software (version 10.6.1) and data were processed and further analyzed in Microsoft Excel and GraphPad Prism software (version 8). Half-maximal effective concentrations (EC₅₀) were calculated based on geometric mean fluorescence intensities (gMFI). In case when the plates were not able to be analyzed on the cytometer, cells were pelleted after the washes and fixed in 100 μl of 2% paraformaldehyde (PFA), prepared by diluting the 16% (w/v) stock (Thermo Fisher) in DPBS, for 15 min at RT. […]
A general note: In flow cytometry, cells or beads pass a laser one at a time.

The target in experiment [2] is T2, recombinant cynomolgus MARCO protein (cynomolgus, UniProt A0A2K5X0Z2 65-519).
T2 construct: Construct not described; also called cyno MARCO; cynoMARCO
T2 sequence: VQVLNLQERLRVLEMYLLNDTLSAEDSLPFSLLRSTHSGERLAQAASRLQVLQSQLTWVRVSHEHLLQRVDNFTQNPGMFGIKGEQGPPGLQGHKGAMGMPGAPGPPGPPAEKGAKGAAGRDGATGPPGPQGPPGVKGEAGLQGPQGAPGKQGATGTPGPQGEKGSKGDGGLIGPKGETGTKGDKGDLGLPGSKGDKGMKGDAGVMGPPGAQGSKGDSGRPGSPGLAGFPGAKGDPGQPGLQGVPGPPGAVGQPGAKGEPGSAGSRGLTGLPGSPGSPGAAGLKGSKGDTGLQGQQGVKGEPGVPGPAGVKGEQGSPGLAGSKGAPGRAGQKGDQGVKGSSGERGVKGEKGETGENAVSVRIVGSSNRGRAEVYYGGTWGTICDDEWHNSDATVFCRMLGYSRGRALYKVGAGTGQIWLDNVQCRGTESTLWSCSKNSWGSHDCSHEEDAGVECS
Nature of the experiment: SPR, multi cycle kinetics, cyno MARCO. On the technique in general: Surface plasmon resonance follows binding to a sensor surface in real time, without labels.

The target of experiment [3] is T3, N-terminally polyhistidine tagged human MARCO ECD (147-520), recombinant (human, UniProt Q9UEW3 147-520).
T3 construct: also called PI-RG-3000; recombinant human MARCO; not shown: N-terminal polyhistidine tag
T3 sequence: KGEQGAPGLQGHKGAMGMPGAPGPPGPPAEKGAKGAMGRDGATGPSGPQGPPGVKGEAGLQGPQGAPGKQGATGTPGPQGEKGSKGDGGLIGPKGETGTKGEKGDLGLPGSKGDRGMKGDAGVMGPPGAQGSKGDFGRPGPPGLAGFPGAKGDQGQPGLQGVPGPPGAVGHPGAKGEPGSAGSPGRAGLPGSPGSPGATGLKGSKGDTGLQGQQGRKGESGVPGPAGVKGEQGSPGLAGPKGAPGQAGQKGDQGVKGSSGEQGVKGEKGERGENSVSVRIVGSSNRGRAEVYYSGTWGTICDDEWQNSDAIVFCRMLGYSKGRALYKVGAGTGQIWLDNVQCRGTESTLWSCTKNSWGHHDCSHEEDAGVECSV
The experiment is described as follows: Biacore; sample stressed 40 C 2 week. The protocol:
Binding of the stressed samples to recombinant human MARCO was assessed by Biacore.

Experiment [4] has as its target T3, N-terminally polyhistidine tagged human …. The experiment is described as follows: ELISA on hMARCO ECD with 2 mM Ca2+, A450-A620. Background: ELISA stands for enzyme-linked immunosorbent assay.

B1: PI-3010-AB (antibody, human IgG1, kappa)
heavy: not shown
light: DIQMTQSPASLSTSLGETVSIECLASEGISNDLAWYQQKSGKSPQLLIYAASRLQDGVPSRFSGSGSGTRYSLKISGMQPEDEADYFCQQSYKYPLTFGSGTKLEIKRTVAAPSVFIFPPSDEQLKSGTASVVCLLNNFYPREAKVQWKVDNALQSGNSQESVTEQDSKDSTYSLSSTLTLSKADYEKHKVYACEVTHQGLSSPVTKSFNRGEC
In the case of B1, it took 0.68 nM to reach a half-maximal effect in experiment [1] (EC50).

B2: PI-HX-3031 (antibody)
heavy: QVQLKESGPGLVQPSQTLSLTCTVSGFSLTSYHVSWVRQPPGKGLEWMGAIWTGGSIAYNSLLKSRLSISRDTSKSQVFLKMNSLQTEDTATYYCARDLSDYYSSYTSFDYWGQGVMVTVSTAETTAPSVYPLAPGTALKSNSMVTLGCLVKGYFPEPVTVTWNSGALSSGVHTFPAVLQSGLYTLTSSVTVPSSTWSSQAVTCNVAHPASSTKVDKKIVPRECNPCGCTGSEVSSVFIFPPKTKDVLTITLTPKVTCVVVDISQNDPEVRFSWFIDDVEVHTAQTHAPEKQSNSTLRSVSELPIVHRDWLNGKTFKCKVNSGAFPAPIEKSISKPEGTPRGPQVYTMAPPKEEMTQSQVSITCMVKGFYPPDIYTEWKMNGQPQENYKNTPPTMDTDGSYFLYSKLNVKKETWQQGNTFTCSVLHEGLHNHHTEKSLSHSP
light: DIQMTQSPASLSTSLGETVSIECLASEGISNDLAWYQQKSGKSPQLLIYAASRLQDGVPSRFSGSGSGTRYSLKISGMQPEDEADYFCQQSYKYPLTFGSGTKLEIKRADAAPTVSIFPPSTEQLATGGASVVCLMNNFYPRDISVKWKIDGTERRDGVLDSVTDQDSKDSTYSMSSTLSLTKADYESHNLYTCEVVHKTSSSPVVKSFNRNEC
notes: Parental rat hybridoma, rat IgG2a
As to B2, the Kd – broadly, the equilibrium constant for the complex coming apart – in experiment [2] stood at 0.109 nM.

B3: PI-3015-AB (antibody, human IgG1, kappa)
heavy: not shown
light: DIQMTQSPSSLSASVGDRVTITCRASEGISNDLAWYQQKPGKAPKLLIYAASRLQSGVPSRFSGSGSGTDYTLTISSMQPEDFATYYCQQSYKYPLTFGQGTKLEIKRTVAAPSVFIFPPSDEQLKSGTASVVCLLNNFYPREAKVQWKVDNALQSGNSQESVTEQDSKDSTYSLSSTLTLSKADYEKHKVYACEVTHQGLSSPVTKSFNRGEC
For B3, the Kd in experiment [3] turned out to be 1.2 nM. Also, in experiment [4], the concentration for a half-maximal effect (EC50 (read off the curve)) (in general, the concentration that produces a half-maximal response) was approximately 1 nM.
